Measurements taken from EP4491629A1 (Université de Lorraine, dated 2025).

B1: Cricetulus griseus galectin-1 (wild-type), produced from the pCarONE vector (other)
chain: ACGLVASNLNLKPGECLKVRGEVAPDAKSFVLNLGKDSNNLCLHFNPRFNAHGDANTIVCNSKDNGAWGTEHREPAFPFQPGSTVEVCITFDQADLTIKLPDGHEFKFPNRLNMEAINYMAADGDFKIKCVAFE
notes: Lectin; recombinant from E. coli; The entries are about self-association (homodimer, printed as 2x16.6 kDa); also called Gal1 wild-type; Gal1; not shown: spacer arm and TEV protease cleavage site encoded by pCarONE
B2: E16K mutant of Cricetulus griseus galectin-1 (other)
chain: ACGLVASNLNLKPGKCLKVRGEVAPDAKSFVLNLGKDSNNLCLHFNPRFNAHGDANTIVCNSKDNGAWGTEHREPAFPFQPGSTVEVCITFDQADLTIKLPDGHEFKFPNRLNMEAINYMAADGDFKIKCVAFE
notes: Recombinant from E. coli; tested for self-association by size exclusion chromatography; also called Gal1 E16K; Gal1 mutant E16K; not shown: spacer arm and TEV protease cleavage site encoded by pCarONEE16K
B3: C131E mutant of Cricetulus griseus galectin-1 (other)
chain: ACGLVASNLNLKPGECLKVRGEVAPDAKSFVLNLGKDSNNLCLHFNPRFNAHGDANTIVCNSKDNGAWGTEHREPAFPFQPGSTVEVCITFDQADLTIKLPDGHEFKFPNRLNMEAINYMAADGDFKIKEVAFEELSSGVDLGTENLYFQS
notes: also called Gal1 C131E; Gal1 mutant C131E

Target: the molecule itself
Assay: size exclusion chromatography (Superdex 75); self-association

| Protein | binding result |
| --- | --- |
| B1 | binds |
| B2 | binds |
| B3 | no binding |
